From publication PMC7477951 (Structure (London, England : 1993), 2019)

Columns and labels:
[1] = target: human HVEM (L39-C162) expressed in Drosophila S2 cells (human) (UniProt Q92956); assay: SPR
[2] = target: human LIGHT (L83-V240) expressed in Drosophila S2 cells (human, UniProt O43557 83-240); assay: SEC
[3] = target: T1, HVEM part of the single-chain human CD160-HVEM (sc_CD160:HVEM) (human, UniProt Q92956 39-143); assay: crystal structure
T1 sequence: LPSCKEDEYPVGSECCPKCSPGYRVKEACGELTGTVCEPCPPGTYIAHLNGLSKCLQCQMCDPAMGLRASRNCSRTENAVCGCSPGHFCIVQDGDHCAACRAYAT

human LIGHT (L83-V240) expressed in Drosophila S2 cells, sequence (O43557 83-240): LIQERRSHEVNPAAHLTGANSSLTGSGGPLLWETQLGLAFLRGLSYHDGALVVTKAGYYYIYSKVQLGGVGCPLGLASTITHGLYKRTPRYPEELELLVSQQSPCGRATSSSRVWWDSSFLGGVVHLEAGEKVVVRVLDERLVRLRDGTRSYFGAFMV

refolded human CD160 ectodomain (residues I27-K144) (from UniProt O95971 27-144) (domain or fragment)
Kd [1]: 7.1 µM

human CD160 ectodomain (I27-L158) expressed in Drosophila S2 cells (from UniProt O95971 27-158) (domain or fragment)
Kd [1]: 6.7 µM

B1: human HVEM (L39-C162) expressed in Drosophila S2 cells (receptor, UniProt Q92956 39-162, looked up)
chain: LPSCKEDEYPVGSECCPKCSPGYRVKEACGELTGTVCEPCPPGTYIAHLNGLSKCLQCQMCDPAMGLRASRNCSRTENAVCGCSPGHFCIVQDGDHCAACRAYATSSPGQRVQKGGTESQDTLC
binding result [2]: binds

B2: CD160 part of the single-chain human CD160-HVEM (sc_CD160:HVEM) (domain or fragment)
chain: INITSSASQEGTRLNLICTVWHKKEEAEGFVVFLCKDRSGDCSPETSLKQLRLKRDPGIDGVGEISSQLMFTISQVTPLHSGTYQCCARSQKSGIRLQGHFFSILFTETGNYTVTGLK
modifications: glycosylated
stoichiometry N [3]: 1
